Key:
Recombinant Human DLL4 [1] = target: T1, Recombinant Human DLL4 (human, UniProt Q9NR61 27-524); test: ECL (MSD) 96-well plate assay, DLL4 coated at 30 ug/mL, Fab 0.1 uM; signal over blank
T1 construct: Bought recombinant human DLL4 (R&D Systems Cat#1506-D4/CF), coated on the plate; also called delta-like protein 4; rHuman DLL4

Recombinant Human DLL4 [2] = target: T1, Recombinant Human DLL4; test: ECL (MSD) 96-well plate assay, DLL4 coated at 15 ug/mL, Fab 0.02 uM; signal over blank
Recombinant Human DLL4 [3] = target: T2, Recombinant Human DLL4 (human, UniProt Q9NR61 27-524); test: ECL (MSD) binding assay, Fab on immobilised recombinant human DLL4; Fab concentration not given in the table
T2 construct: Bought recombinant human DLL4 (R&D Systems 1506-D4/CF); also called delta-like protein 4; rHuman DLL4

Recombinant Human DLL4 [4] = target: T2, Recombinant Human DLL4; test: ELISA on plate-coated DLL4, Fab at 6.67 nM (3-fold serial dilution)
Recombinant Human DLL4 [5] = target: T2, Recombinant Human DLL4; test: ELISA on plate-coated DLL4, Fab at 20 nM (3-fold serial dilution)
Recombinant Human DLL4 [6] = target: T2, Recombinant Human DLL4; test: ELISA on plate-coated DLL4, Fab at 2.22 nM (3-fold serial dilution)
Recombinant Human DLL4 [7] = target: T2, Recombinant Human DLL4; test: ELISA on plate-coated DLL4, Fab at 0.74 nM (3-fold serial dilution)

Row | Signal/Noise (Recombinant Human DLL4 [1]) | Signal/Noise (Recombinant Human DLL4 [2]) | ECL signal (Recombinant Human DLL4 [3]) | ELISA signal (Recombinant Human DLL4 [4]) | ELISA signal (Recombinant Human DLL4 [5]) | ELISA signal (Recombinant Human DLL4 [6]) | ELISA signal (Recombinant Human DLL4 [7]) | Binder
1 | 5.8 | 2 | – | – | – | – | – | Fab VH5-51_IGHD5-18*01>3_IGHJ4*01 G100D & V3-4_IGLJ1*01 (Fab, V domains shown, Fab; VH-CH1 (His6/Flag, Plasmid A) and VL-lambda CL (Plasmid E)) VH: EVQLVQSGAEVKKPGESLKISCKGSGYSFTSYWIGWVRQMPGKGLEWMGIIYPGDSDTRYSPSFQGQVTISADKSISTAYLQWSSLKASDTAMYYCARRDYSYGYDYFDYWGQGTLVTVSS VL: QTVVTQEPSFSVSPGGTVTLTCGLSSGSVSTSYYPSWYQQTPGQAPRTLIYSTNTRSSGVPDRFSGSILGNKAALTITGAQADDESDYYCVLYMGSGISYVFGTGTKVTVL
2 | 90.6 | 39.9 | – | – | – | – | – | Fab VH5-51_IGHD5-18*01>3_IGHJ4*01 G100R & V3-4_IGLJ1*01 (Fab, V domains shown, Fab; VH-CH1 (His6/Flag, Plasmid A) and VL-lambda CL (Plasmid E)) VH: EVQLVQSGAEVKKPGESLKISCKGSGYSFTSYWIGWVRQMPGKGLEWMGIIYPGDSDTRYSPSFQGQVTISADKSISTAYLQWSSLKASDTAMYYCARRRYSYGYDYFDYWGQGTLVTVSS VL: QTVVTQEPSFSVSPGGTVTLTCGLSSGSVSTSYYPSWYQQTPGQAPRTLIYSTNTRSSGVPDRFSGSILGNKAALTITGAQADDESDYYCVLYMGSGISYVFGTGTKVTVL
3 | 134 | 72.6 | – | – | – | – | – | Fab VH5-51_IGHD5-18*01>3_IGHJ4*01 G100K & V3-4_IGLJ1*01 (Fab, V domains shown, Fab; VH-CH1 (His6/Flag, Plasmid A) and VL-lambda CL (Plasmid E)) VH: EVQLVQSGAEVKKPGESLKISCKGSGYSFTSYWIGWVRQMPGKGLEWMGIIYPGDSDTRYSPSFQGQVTISADKSISTAYLQWSSLKASDTAMYYCARRKYSYGYDYFDYWGQGTLVTVSS VL: QTVVTQEPSFSVSPGGTVTLTCGLSSGSVSTSYYPSWYQQTPGQAPRTLIYSTNTRSSGVPDRFSGSILGNKAALTITGAQADDESDYYCVLYMGSGISYVFGTGTKVTVL
4 | 26 | 11 | – | – | – | – | – | Fab VH5-51_IGHD5-18*01>3_IGHJ4*01 G100T & V3-4_IGLJ1*01 (Fab, V domains shown, Fab; VH-CH1 (His6/Flag, Plasmid A) and VL-lambda CL (Plasmid E)) VH: EVQLVQSGAEVKKPGESLKISCKGSGYSFTSYWIGWVRQMPGKGLEWMGIIYPGDSDTRYSPSFQGQVTISADKSISTAYLQWSSLKASDTAMYYCARRTYSYGYDYFDYWGQGTLVTVSS VL: QTVVTQEPSFSVSPGGTVTLTCGLSSGSVSTSYYPSWYQQTPGQAPRTLIYSTNTRSSGVPDRFSGSILGNKAALTITGAQADDESDYYCVLYMGSGISYVFGTGTKVTVL
5 | – | – | 8000 | 0.747 | 0.91 | 0.523 | 0.263 | Fab VH1-46_IGHD6-6*01_IGHJ1*01 S102A/S103P/S104F/H111F I51V/N52L/S54T/G56H & L6_IGKJ1*01 S28N/S30D/S31H S52L/A55S (Fab, V domains shown, Fab expressed in E. coli: VH joined to CH1 from Plasmid A (His6 and Flag tags), VL joined to kappa CL from Plasmid C; also called H:APFF VLTH & L:NDH LS) VH: QVQLVQSGAEVKKPGASVKVSCKASGYTFTSYYMHWVRQAPGQGLEWMGIVLPTGHSTSYAQKFQGRVTMTRDTSTSTVYMELSSLRSEDTAVYYCAREEYAPFSAEYFQFWGQGTLVTVSS VL: EIVLTQSPATLSLSPGERATLSCRASQNVDHYLAWYQQKPGQAPRLLIYDALNRSTGIPARFSGSGSGTDFTLTISSLEPEDFAVYYCQQRSNWPPWTFGQGTKVEIKR
6 | – | – | 6020 | 0.739 | 0.863 | 0.463 | 0.27 | Fab VH1-46_IGHD6-6*01_IGHJ1*01 S102A/S103P/S104F/H111F N52L/S54T/G56H & L6_IGKJ1*01 S28N/S30D/S31H (Fab, V domains shown, Fab expressed in E. coli: VH joined to CH1 from Plasmid A (His6 and Flag tags), VL joined to kappa CL from Plasmid C; also called H:APFF LTH & L:NDH) VH: QVQLVQSGAEVKKPGASVKVSCKASGYTFTSYYMHWVRQAPGQGLEWMGIILPTGHSTSYAQKFQGRVTMTRDTSTSTVYMELSSLRSEDTAVYYCAREEYAPFSAEYFQFWGQGTLVTVSS VL: EIVLTQSPATLSLSPGERATLSCRASQNVDHYLAWYQQKPGQAPRLLIYDASNRATGIPARFSGSGSGTDFTLTISSLEPEDFAVYYCQQRSNWPPWTFGQGTKVEIKR
7 | – | – | 11500 | 0.916 | 1.05 | 0.557 | 0.398 | Fab VH1-46_IGHD6-6*01_IGHJ1*01 S102A/S103P/S104F/H111F N52L/S54T/G56H & L6_IGKJ1*01 S28N/S30D/S31H S52L/A55S (Fab, V domains shown, Fab expressed in E. coli: VH joined to CH1 from Plasmid A (His6 and Flag tags), VL joined to kappa CL from Plasmid C; also called H:APFF LTH & L:NDH LS) VH: QVQLVQSGAEVKKPGASVKVSCKASGYTFTSYYMHWVRQAPGQGLEWMGIILPTGHSTSYAQKFQGRVTMTRDTSTSTVYMELSSLRSEDTAVYYCAREEYAPFSAEYFQFWGQGTLVTVSS VL: EIVLTQSPATLSLSPGERATLSCRASQNVDHYLAWYQQKPGQAPRLLIYDALNRSTGIPARFSGSGSGTDFTLTISSLEPEDFAVYYCQQRSNWPPWTFGQGTKVEIKR
